Experimental data taken from the DeepSol protein solubility set.

Assay: soluble on expression in E. coli; label from the status in PepcDB or PDB records

Sequence | soluble on expression in E. coli
MSFSDHFSAVAASYAKARPRYPQRWFRYLARIVPDRQRVWDCATGNGQAAIALAEYFSEVIGSDASAAQVRQARSHPRVQYLVFPAEATPLAPASLDLITVAQAAHWFDLPQFYIEAQRLLRPGGVIALWGYGLGSLNPAIDHVFNHFYRDWLDPYWPPERQWVEQAYEGLSFPFEPLPTPTFSMQCDWTLFDLLAYLRTWSGVQQFQRQRGFDPVWAIAPELQRVWGDPQRYRRITWPLFAKVGRWQPDRVRLEHHHHHH | not soluble
MSFSESRHNENCLIQEGALLFCEQAVVAPVSGDLVFRPLKIEVLSKLLAFIDGAGLVDTTYAESDKWVLLSPEFRAIWQDRKRCEYWFLQQIITPSPAFNKVLALLRKSESYWLVGYLLAQSTSGNTMRMLGEDYGVSYTHFRRLCSRALGGKAKSELRNWRMAQSLLNSVEGHENITQLAVNHGYSSPSHFSSEIKELIGVSPRKLSNIIQLADK | not soluble
MSFVVIIPARYASTRLPGKPLVDINGKPMIVHVLERARESGAERIIVATDHEDVARAVEAAGGEVCMTRADHQSGTERLAEVVEKCAFSDDTVIVNVQGDEPMIPATIIRQVADNLAQRQVGMATLAVPIHNAEEAFNPNAVKVVLDAEGYALYFSRATIPWDRDRFAEGLETVGDNFLRHLGIYGYRAGFIRRYVNWQPSPLEHIEMLEQLRVLWYGEKIHVAVAQEVPGTGVDTPEDLERVRAEMRGSHHHHHH | soluble
MSFWRVFLFGLFLTPPAAACDLALALAVDVSGSVDEGEYRTQMDGLAHALRDPVVSEALVRAEAQLMLVQWTGSDRQRVTIPWTQASSFDALDRFADRVAADPRIWRNYSTAIGEALEVTMAAFAQVPDCARHLIDVSGDGPSNEGIEPLAVHRDLRALGITVNAIAIEQSEPDLTAYFYENVIVGEGAFVETANGFADYPARIRKKLLREVTQQTAALDLEHHHHHH | not soluble
MSGAAAASAAGYDRHITIFSPEGRLYQVEYAFKATNQTNINSLAVRGKDCTVVISQKKVPDKLLDPTTVSYIFCISRTIGMVVNGPIPDARNAALRAKAEAAEFRYKYGYDMPCDVLAKRMANLSQIYTQRAYMRPLGVILTFVSVDEELGPSIYKTDPAGYYVGYKATATGPKQQEITTNLENHFKKSKIDHINEESWEKVVEFAITHMIDALGTEFSKNDLEVGVATKDKFFTLSAENIEERLVAIAEQD | soluble
MSGARRDNRRSNGRDDSSRVAKAENDRKPGRENRGGDEKRGNSNNAARSGGGGGGNRGGAERGIAPAQQPYDNNGGHRSGGGGGRSGGGGTSFNGAAFTESQLMDEVPKKKFTGRCRLFVGNLPNEVKETELKELFSPHGDIAECYLSGKGFAFLRLDTRAHAESAKEAIDGRIIHGRQVRVRFAVHGAAIRVKELSPTVSNEMLYHAFSHFGDVERAVHIVDEKGRPTGEGIVEFERKPNCNEAMAAIRDKVFLLTASPKPLICEVLEPRDEDDGLAERMIPRTPGLSKERELGPRFPTPNSFEYVYGMKWKELYVVEQKRRAQLDEELRESRRRLESDMELAYQDYQAQMLREDLQRRQQELERLEAARRERMRGLGGPPPGMPGGVPPQAQPFNPHGGSMFGGPGGPGGPPPFGQPFQQAPQGMFNVPTGPPPLMGGGGDPRGPPGGMGGPPGHGGMGGPPGHGGQGGPPGHGGMGGPPPGQGGPGVRETWRSWRNASKSHGRSNMIEGVQRLLQIFKSDNGPPGGMPGRDYPPQQGPGGMFGSYGDGGYPPEKKQRR | not soluble
MSGELSNRFQGGKAFGLLKARQERRLAEINREFLCDQKYSDEENLPEKLTAFKEKYMEFDLNNEGEIDLMSLKRMMEKLGVPKTHLEMKKMISEVTGGVSDTISYRDFVNMMLGKRSAVLKLVMMFEGKANESSPKPVGPPPERDIASLP | soluble
MSGINARPTNSIFSNLCQIFSSLQGCLKTQTPFSDGLFSLKSPYRSIRKHRRIIMEVTISAIINGEFADQYGKRGSQFNENGMLI | not soluble
MSGKRISREKLTIKKMIDLYQAKCPQASAEPEHYEALFVYAQKRLDKCVFGEEKPACKQCPVHCYQPAKREEMKQIMRWAGPRMLWRHPILTVRHLIDDKRPVPELPEKYRPKKPRE | not soluble
MSGLEAKIAAIRDPDLQAELEAARGGFLFAPIVEHLLFRQRERDAARAQEGAQAEAREAMGRDRRRRDAVREVIESEPTGPENLQHLHSVLALCGLPYRDPGDARDFVREYGRNSLSLSAGRLKNPITGEMELQGLPYGPKARLVLLHLCTEAVRQRSPTIEVADSLSGFMKAMGFAVTGGERGTIGAFKEQLNRLAACSMQLGLWDGEGQASTLNVPPFRQLELWRRGDDGLVWQRTVSFHQDFYDSLIRHALPVDIRAARAFSGSARKLDLLFWTGYRLRALQRPLRLTWDNLHRQFGAENASLRSFRQAFKADLAGLLEVFPRLRIDLDEGGMLLHPADPGSLLVPPKLEHHHHHH | not soluble
MSGNGVKKVAEVAAKAGKAIDWEGMAKMLVSDEARKEFNTLRRTFEDVNHQLQTKFSQEPQPIDWEYYRKGIGSKVVDMYKEAYERTSCFVNPNVNAFCGTVICSEMHVLLCDLVNRSEDTKHEINAGIEIPKYVDTVTPQYKPKFDALLVELKEAEKESLKESERIEKELAELQEMKKNISTMTADEYFAKHPEVKQKFDDEIRNDNWGY | soluble
MSGSIARCETWPFPLHFSLLLLLLDFPACGNKGGLVIFIAHKFSMLRLSMHRASLPLWVGARLLSSTAVLRLEQSAEERTREEELRQRVQQKYRGMQIPEMTHHEYGHFSTTGISASAAHQAARSAGVEGYPGFGGGAFQNRGRVDWLLLLTGCTLVYLSFKILFRQFTRGVNGLELPLWTASIELQAKHILFAVQFQQSEQDQIKKDFEAVRQTNPFVDFFEWVRSRRPEFCCGRKYGADYVMHTLVSCLRSGDGTQLATLARTLQQSMTRKNGDSLQRVDDFVEQLQSAGYLFQGIRGVGSSGVHTPEHSPQPIYTPLREVSQCGVQESDLINALDVKNGEAHSSTPFREAK | soluble
MSGSLEIPGLDDGLLPVETGYGLFQGTAKKRVVICNDNDKFRHSGPLPRALCGSFAAIGLLPLPVVETRPAPPPKVAPITPALQGKACGQAVFEGLRNKNAVETVDNLPALRQTARTGKRWKALESLMQETPAIIYKIVPETLWTAARAEGMFEGAAIDLTDGFIHFSTAKQVAETAARHFSGQVDLLLIAVDGAALGDKLVYEPSRGGDLFPHLYAPLPFSAVLWETPLSLDHDGQHQFPEILLEHHHHHH | not soluble
MSGTNRVAANLNMLFTNLPLLQRYGAAASAGFKLVEVSIPYTEPAEKLREAADEYHLKHTLINAPPGNWDDGFRGLASLKSAKKEFRKSLDTAIEYAKALGCCRVHVMAGIPKSDDDLENAHQTYSENVRFAAEKFKEHKLICLIEPINKYTIPGYHLNNYEDAMDVIQMDQSNNLKIQYDTFHAQQINGQIGAIMRKLKDYIGYIQVAQVPNRGACDTRGEIDYHFIFDEIRSINPSWVIGAEYLDAKPSFNWIENMSLSF | not soluble
MSGVASGKTAIKSTAKVLSFVVQKHWATRLHYDFRLELEGTMKSWAVPKGPSFDPNDKRMAVHVEDHPISYNSFEGEIPSGQYGAGKVIIWDKGTWIPLEDPHKGYRDGKLKFELRGLKLKGHWALVRMRKEENKKQEPWLLIKEKDEYVRSSREYSVVDEMPDSVAELEHHHHHH | not soluble
MSGVLNTVDQRTNLVGENRLELLLFTLNSRQLFAINVFKVKEVIKLPPLTKLPGSHYNIRGVASLRGEAVPVIDLRCSIGFPPLRGEAEEENLIVTEYNRSVQGFLVGPVRNIINTAWTEIQPPPSTSGRSNYLTAITQVKDGDTSQIVEIIDVEKVLAEIVHYDVTISEDILDHDLSQSMVGRN | not soluble
MSHFTQLKTKLTNRDCLVQALEDLKLQPHVFEQPQPLAGYYMDSQGYSAEIIIFGRTIKARADIGFRWNQSSGVYEVIHDEYETSPRLGEDFFSHKLMQTYGRRMVLAKTEELREKFGECTISEETKGQVQTLRLTFAGHQEVKQYARRLEHHHHHH | not soluble
MSHGSPAPSASVSSDGEEPEIDVMPSSDEESEPIYIPKEKEPVVIRGVGNITVFGMNSRFNTEYPPELTGYIAPEELSATLSRVNSVLKRHVQTSSRWLLCGLAFCCCSIGCSMWPVLCLNRRTVLALEKCLDHENVSLYHKLGLHWSLARRPTEPSDRLTEYVLELKTLPKPALNLPD | not soluble
MSICLIAEEGADSGALSSLAERWGLVSDPNAVMALVLTTERLELRKQDEPKLGAIFVDFVAGPMAHRRRFGGGRGEAVAKAVGIKKDYLPDVVDATAGLGRDAFVLAALGCHVRMVERNPVVAALLDDGLKRGYQDAEIGPWLRERLTLLHASSMTALRDITPPPDVVYLDPMFPHKQKSALVKKEMRVFQSLVGADDDADALLEPARALAKKRVVVKRPDYAPPLAGVPAQSMLETKSHRFDFYLPVLEHHHHHH | soluble
MSIEHHFLCPKKLLKLCNKKIDKDVIRNLQLLTEKFLSDIIHRSALLCKHKGKSTVDNTDIRFVIEKDFDYSFGTREIQGTTSLPTAEHLERMAEISRQNK | not soluble
MSIITRLFNNSDFEKLNQLCKLYDDLGYPTNENDLKKRLKKITNHDDYFLLLLIKENKIIGLSGMCKMMFYEKNAEYMRILAFVIHSEFRKKGYGKRLLADSEEFSKRLNCKAITLNSGNRNERLSAHKLYSDNGYVSNTSGFTKQL | soluble
MSIKVDMSLDCKGLACPMPIVKTKKAIEGLASGQVIEVKATDKGSTVDIKSWANKVGHQYIGTKHEGDILMHYVRKAHEHEVNEVVKYPHTITNTELEEILVSGEECTVLDVREAAEFAFGHIPSATSMPLGELESLVLDKTKQIYVVCRTGNRSDVACQMLKEKGYTNVKNVIPGMIEWQGNIENLEHHHHHH | soluble
MSILNDYKRKTEGSVFWAQRARSVMPDGVTADTRAFDPHGLFISDAQGVHKTDVDGNVYLDFFGGHGALVLGHGHPRVNAAIAEALSHGVQYAASHPLEVRWAERIVAAFPSIRKLRFTGSGTETTLLALRVARAFTGRRMILRFEGHYHGWHDFSASGYNSHFDGQPAPGVLPETTANTLLIRPDDIEGMREVFANHGSDIAAFIAEPVGSHFGVTPVSDSFLREGAELARQYGALFILDEVISGFRVGNHGMQALLDVQPDLTCLAKASAGGLPGGILGGREDVMGVLSRGSDRKVLHQGTFTGNPITAAAAIAAIDTILEDDVCAKINDLGQFAREAMNHLFARKGLNWLAYGRFSGFHLMPGLPPNTTDTGSITRAEVARPDVKMIAAMRMALILEGVDIGGRGSVFLSAQHEREHVEHLVTTFDRVLDRLADENLLSWQGTNLSGNQS | soluble
MSIRAEEISALIKQQIENYQSEIEVSDVGTVIQVGDGIARAHGLDNVMAGELVEFSNGVMGLAQNLEENNVGIIILGPYTEIREGDEVRRTGRIMQVPVGKELIGRVVNPLGQPVDGLGPINTTNTRPIESPAPGVMDRKSVHEPLQTGIKAIDALVPIGRGQRELIIGDRQTGKTAVALDTIINQKDEDMICIYVAIGQKESTVRNVVETLRKHGALEYTIVVTASASQPAPLLYLAPYAGVTMGEEFMYNGKHVLVVYDDLSKQAAAYRELSLLLRRPPGREAYPGDVFYLHSRLLERAAKLSDAKGGGSLTALPFIETQAGDVSAYIPTNVISITDGQIFLQSDLFFSGVRPAIDAGTSVSRVGGSAQIKAMSKVSGTLRLDLASYRELEAFAQFGSDLDKATQAKLNRGARTVEVLKQGLHKPLRVEKQVIILYALTRGFLDDIPVVDITRFEEEFHAWLDSNATDLLEEIRTTKKLADDDKFAAAINGFKKVFVASE | not soluble
MSITHQPANLTLAQIQQMIGGVMLLSQHSPLHRRYVVAEWLQRILPAFELNQFCYYEDEHGRPIAFCNWAFVSEQIRDELLSGVREISPSDWRSGQQIYIPEMIAPFGHGREVVNDLRRRVFLPWQGQKVCTVRGKVDAQNDRCIRKVQWFSI | not soluble
